We go through 38 variants from the RNAGym collection of RNA variant scans (doi:10.7554/elife.80360).

The chains are these.
B1: Hairpin Ribozyme (parent)
chain: GUCCUCUUUCACGUGCGCGUGAAAGAGAGAAGUGAACCAGAGAAACACACGUUGUGGUAUAUUACCUGGUA

The variants in the series derive from B1. Briefly: self-cleavage, relative activity (ratio to wild type); higher = more cleavage; co-transcriptional.
In the case of GUCCUCUUUCACGUGCGCGUGAAAGAGAGAAGUGUACCAGAGAAACACACGUAGUGGUAUAUUACCUGGUA [A35U U53A], the self-cleavage was 0.785.
GUCCUCUUUCACGUGCGCGUGAAAGAGAGAAGUGUACCACAGAAACACACGUUGUGGUAUAUUACCUGGUA [A35U G40C]: the self-cleavage amounted to 0.185.
As for GUCCUCUUUCACGUGCGCGUGAAAGAGAGAAGUGUACCAAAGAAACACACGUUGUGGUAUAUUACCUGGUA [A35U G40A], the self-cleavage came out at 0.154.
On to GUCCUCUUUCACGUGCGCGUGAAAGAGAGAAGUGGACCAGAGAAACACACGUUGUGGUAUGUUACCUGGUA [A35G A61G], for which the self-cleavage is 0.185.
With GUCCUCUUUCACGUGCGCGUGAAAGAGAGAAGUGUACCAGAGAAACACACGUUAUGGUAUAUUACCUGGUA [A35U G54A], the self-cleavage came to 0.197.
Then GUCCUCUUUCACGUGCGCGUGAAAGAGAGAAGUGUACCAGAGAAACACACGUUCUGGUAUAUUACCUGGUA [A35U G54C], with 0.0851; and GUCCUCUUUCACGUGCGCGUGAAAGAGAGAAGUGGACCAGAGAAACACACGUUGUGGUAGAUUACCUGGUA [A35G U60G], with 0.443.
As for GUCCUCUUUCACGUGCGCGUGAAAGAGAGAAGUGUACCAGAGAAACACUCGUUGUGGUAUAUUACCUGGUA [A35U A49U], the self-cleavage was found to be 0.155.
For GUCCUCUUUCACGUGCGCGUGAAAGAGAGAAGUGUACCAGAGAAACACACGUUGUGGUAUAUUACAUGGUA [A35U C66A], the self-cleavage is 0.154.
Then GUCCUCUUUCACGUGCGCGUGAAAGAGAGAAGUGGACCAGAGAAACACACGUUGUGGUAUAUUAACUGGUA [A35G C65A], with 0.867; and GUCCUCUUUCACGUGCGCGUGAAAGAGAGAAGUGUACCAGAGAAACACACGUUGUAGUAUAUUACCUGGUA [A35U G56A], with 0.143; and GUCCUCUUUCACGUGCGCGUGAAAGAGAGAAGUGUACCAGAGAAACACACGUUGUUGUAUAUUACCUGGUA [A35U G56U], with 0.221.
Consider GUCCUCUUUCACGUGCGCGUGAAAGAGAGAAGUGGACCAGAGAAACACACGUUGCGGUAUAUUACCUGGUA [A35G U55C], for which the self-cleavage stood at 0.3.
With GUCCUCUUUCACGUGCGCGUGAAAGAGAGAAGUGGACCAGAGAAACACACCUUGUGGUAUAUUACCUGGUA [A35G G51C], the self-cleavage was determined as 0.689.
Then GUCCUCUUUCACGUGCGCGUGAAAGAGAGAAGUGUACCAGAGAAACACACGUUGUGGUAUAUUACCGGGUA [A35U U67G], with 0.161; and GUCCUCUUUCACGUGCGCGUGAAAGAGAGAAGUGUACCAGAGAAACACACGUUGUGGUAUAUUACCAGGUA [A35U U67A], with 0.126; and GUCCUCUUUCACGUGCGCGUGAAAGAGAGAAGUGUACCAGAGAAACACACGUUGUGGUUUAUUACCUGGUA [A35U A59U], with 0.117.
Then GUCCUCUUUCACGUGCGCGUGAAAGAGAGAAGUGGACCAGAGAAAAACACGUUGUGGUAUAUUACCUGGUA [A35G C46A], with 0.125; and GUCCUCUUUCACGUGCGCGUGAAAGAGAGAAGUGUACCUGAGAAACACACGUUGUGGUAUAUUACCUGGUA [A35U A39U], with 0.391.
In the case of GUCCUCUUUCACGUGCGCGUGAAAGAGAGAAGUGUACCGGAGAAACACACGUUGUGGUAUAUUACCUGGUA [A35U A39G], the self-cleavage was 0.433.
With GUCCUCUUUCACGUGCGCGUGAAAGAGAGAAGUGUACCAGAGAACCACACGUUGUGGUAUAUUACCUGGUA [A35U A45C] the figure was 0.112; with GUCCUCUUUCACGUGCGCGUGAAAGAGAGAAGUGUACCAGAGAAGCACACGUUGUGGUAUAUUACCUGGUA [A35U A45G], 0.0965; with GUCCUCUUUCACGUGCGCGUGAAAGAGAGAAGUGGACCAGAGAAACACACGUUGUGGUAUAUUACCUGGUA [A35G], 0.931.
Turning to GUCCUCUUUCACGUGCGCGUGAAAGAGAGAAGUGUACCAGAGAAACACACGUUGUGGUAUAUUACCUGGUA [A35U], the self-cleavage was determined as 0.811.
As for GUCCUCUUUCACGUGCGCGUGAAAGAGAGAAGUGGACCAGAGAAACACACGUAGUGGUAUAUUACCUGGUA [A35G U53A], the self-cleavage was 1.25.
Then GUCCUCUUUCACGUGCGCGUGAAAGAGAGAAGUGGACCAGAGAAACACACGUUCUGGUAUAUUACCUGGUA [A35G G54C], with 0.444.
With GUCCUCUUUCACGUGCGCGUGAAAGAGAGAAGUGUACCAGAGAAACACACGUUGUGGUAGAUUACCUGGUA [A35U U60G] the figure was 0.343; with GUCCUCUUUCACGUGCGCGUGAAAGAGAGAAGUGUACCAGAGAAAUACACGUUGUGGUAUAUUACCUGGUA [A35U C46U], 0.143.
With GUCCUCUUUCACGUGCGCGUGAAAGAGAGAAGUGUACCAGAGAAAAACACGUUGUGGUAUAUUACCUGGUA [A35U C46A] the figure was 0.16; with GUCCUCUUUCACGUGCGCGUGAAAGAGAGAAGUGGACCAGAGAAACACACGUUGUGGUAUAUUCCCUGGUA [A35G A64C], 0.174; with GUCCUCUUUCACGUGCGCGUGAAAGAGAGAAGUGGACCAGAGAAACAAACGUUGUGGUAUAUUACCUGGUA [A35G C48A], 0.198.
Take GUCCUCUUUCACGUGCGCGUGAAAGAGAGAAGUGGACCAGAGAAACACACGUUGUGCUAUAUUACCUGGUA [A35G G57C]: the self-cleavage amounted to 0.268.
Regarding GUCCUCUUUCACGUGCGCGUGAAAGAGAGAAGUGUACCAGCGAAACACACGUUGUGGUAUAUUACCUGGUA [A35U A41C], the self-cleavage was 0.957.
For the variant GUCCUCUUUCACGUGCGCGUGAAAGAGAGAAGUGUACCAGGGAAACACACGUUGUGGUAUAUUACCUGGUA [A35U A41G], the self-cleavage stood at 0.599.
Then GUCCUCUUUCACGUGCGCGUGAAAGAGAGAAGUGUACCAGAGUAACACACGUUGUGGUAUAUUACCUGGUA [A35U A43U], with 0.0408; and GUCCUCUUUCACGUGCGCGUGAAAGAGAGAAGUGGACCAGAGAAACACACGUUGUGGCAUAUUACCUGGUA [A35G U58C], with 1.11; and GUCCUCUUUCACGUGCGCGUGAAAGAGAGAAGUGUACCAGAGAAACACACGUUGUGGUAUAUUACCUGGUG [A35U A71G], with 0.962.
With GUCCUCUUUCACGUGCGCGUGAAAGAGAGAAGUGUACCAGAGAAACACACGUUGUGGUAUAUUACCUGGUU [A35U A71U] the figure was 0.978.
